In IntAct's records for PubMed 29892012:

B1: Myotubularin-related protein 9 (Homo sapiens), Q96QG7 (parent)
chain: MEFAELIKTPRVDNVVLHRPFYPAVEGTLCLTGHHLILSSRQDNTEELWLLHSNIDAIDKRFVGSLGTIIIKCKDFRIIQLDIPGMEECLNIASSIEALSTLDSITLMYPFFYRPMFEVIEDGWHSFLPEQEFELYSSATSEWRLSYVNKEFAVCPSYPPIVTVPKSIDDEALRKVATFRHGGRFPVLSYYHKKNGMVIMRSGQPLTGTNGRRCKEDEKLINATLRAGKRGYIIDTRSLNVAQQTRAKGGGFEQEAHYPQWRRIHKSIERYHILQESLIKLVEACNDQTHNMDRWLSKLEASNWLTHIKEILTTACLAAQCIDREGASILIHGTEGTDSTLQVTSLAQIILEPRSRTIRGFEALIEREWLQAGHPFQQRCAQSAYCNTKQKWEAPVFLLFLDCVWQILRQFPCSFEFNENFLIMLFEHAYASQFGTFLGNNESERCKLKLQQKTMSLWSWVNQPSELSKFTNPLFEANNLVIWPSVAPQSLPLWEGIFLRWNRSSKYLDEAYEEMVNIIEYNKELQAKVNILRRQLAELETEDGMQESP
partner: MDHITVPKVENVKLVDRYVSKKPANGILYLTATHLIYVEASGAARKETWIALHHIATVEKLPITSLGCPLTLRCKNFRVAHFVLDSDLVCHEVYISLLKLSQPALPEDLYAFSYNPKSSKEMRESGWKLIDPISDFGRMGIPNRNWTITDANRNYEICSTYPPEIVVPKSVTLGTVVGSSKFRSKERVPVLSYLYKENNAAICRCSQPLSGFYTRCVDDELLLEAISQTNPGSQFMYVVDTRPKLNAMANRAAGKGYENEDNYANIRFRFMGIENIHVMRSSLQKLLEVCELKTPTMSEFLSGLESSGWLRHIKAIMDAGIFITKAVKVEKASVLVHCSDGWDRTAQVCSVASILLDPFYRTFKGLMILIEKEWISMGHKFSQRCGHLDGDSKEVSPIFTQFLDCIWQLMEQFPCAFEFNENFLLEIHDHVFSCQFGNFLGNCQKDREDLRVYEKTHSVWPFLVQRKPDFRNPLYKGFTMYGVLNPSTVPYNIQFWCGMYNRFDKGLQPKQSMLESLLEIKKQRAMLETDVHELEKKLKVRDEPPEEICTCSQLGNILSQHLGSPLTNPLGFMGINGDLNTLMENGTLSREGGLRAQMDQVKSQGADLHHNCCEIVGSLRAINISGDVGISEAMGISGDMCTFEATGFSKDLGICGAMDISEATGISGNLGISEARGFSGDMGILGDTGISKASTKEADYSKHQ
B2: Myotubularin-related protein 9 (Homo sapiens), Q96QG7 (parent)
chain: B1 chain
partner: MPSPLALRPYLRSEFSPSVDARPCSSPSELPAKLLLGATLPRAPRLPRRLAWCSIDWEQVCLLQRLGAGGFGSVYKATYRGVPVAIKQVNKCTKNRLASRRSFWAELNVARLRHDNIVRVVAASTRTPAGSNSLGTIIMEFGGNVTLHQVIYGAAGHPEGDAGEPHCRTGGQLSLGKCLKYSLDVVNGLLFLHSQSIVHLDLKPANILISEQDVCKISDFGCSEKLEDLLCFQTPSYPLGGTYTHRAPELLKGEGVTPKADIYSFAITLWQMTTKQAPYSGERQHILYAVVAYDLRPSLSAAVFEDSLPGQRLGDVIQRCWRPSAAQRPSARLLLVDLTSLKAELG
B3: Disks large-associated protein 2 (Homo sapiens), Q9P1A6 (parent)
chain: MGTAQVLPGILQKHCCILPDRNTESQCTLCGEPEEEEAGDLVQPGISFPGPAEEDLDPQYSWSPTQHFNEERYSPAPRSMKGLSGSRTQPPLCSGHTCGLAPPEDCEHLHHGPDARPPYLLSPADSCPGGRHRCSPRSSVHSECVMMPVVLGDHVSSSTFPRMHYSSHYDTRDDCAVAHAGAKINRIPANLLDQFEKQLPLHRDGFHTLQYQRTSAAAEQRSESPGRIRHLVHSVQKLFTKSHSLEGSSKSNANGTKADGRADDHHHAHHAKHSKRSKSKERKPEGKPRPGMSSWWSSDDNLDSDSTYRTPSVLNRHHLGPVAHCYPDALQSPFGDLSLKTSKSNNDVKCSACEGLALTPDAKYLKRSSWSTLTVSQAKEAYRKSSLNLDKPLLHQDAKPALRPCHYLQVPQDEWGGYPTGGKDEEIPCRRMRSGSYIKAMGDEESGESDSSPKTSPKSAILPEPLLKSIGQRPLGEHQTQTYLQAASDVPVGHSLDPAANYNSPKFRSRNQSYMRAVSTLSQASCVSQVSEAEINGQFESVCESVFSEVESQAMDALDLPGCFRTRSHSYLRAIQAGYSQDDECIPMMTPSDITSTIRSTAAVSYTNYKKTPPPVPPRTTSKPLISVTAQSSTESTQDAYQDSRAQRMSPWPQDSRGLYNSTDSLDSNKAMNLALETAAAQRHLPESQSSSVRTSDKAILVSKAEELLKSRCSSIGIQDSEFPEHQPYPRSDVETATDSDTESRGLREYHSVGVQVEDEKRHGRFKRSNSVTAAVQADLELEGFPGHITTEDKGLQFGSSFQRHSEPSTPTQYSAVRTVRTQGLFSYREDYRTQVDTSTLPPPDPWLEPAIDTVETGRMSPCRRDGSWFLKLLHAETKRMEGWCKEMEREAEENDLSEEILGKIRSAVGSAQLLMSQKFQQFYWLCQQNMDPSAMPRPTSQDLAGYWDMLQLSIEDVSMKFDELQRLRLNDWKMMESPERKEERKVPPPIPKKPPKGKFPITREKSLDLPDRQRQEARRRLMAAKRAASFRQNSASERADSIEIYIPEAQTRL
partner: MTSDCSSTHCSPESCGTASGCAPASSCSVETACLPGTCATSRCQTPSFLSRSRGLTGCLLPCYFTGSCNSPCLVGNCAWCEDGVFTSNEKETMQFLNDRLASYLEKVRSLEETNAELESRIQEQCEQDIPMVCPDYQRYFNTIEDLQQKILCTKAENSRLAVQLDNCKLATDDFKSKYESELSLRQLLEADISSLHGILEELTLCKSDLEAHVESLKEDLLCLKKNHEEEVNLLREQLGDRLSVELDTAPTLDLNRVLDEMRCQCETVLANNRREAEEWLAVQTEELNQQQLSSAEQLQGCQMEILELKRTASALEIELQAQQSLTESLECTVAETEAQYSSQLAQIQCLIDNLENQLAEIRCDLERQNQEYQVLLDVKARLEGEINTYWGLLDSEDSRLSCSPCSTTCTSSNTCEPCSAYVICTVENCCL
B4: SOSS complex subunit C (Homo sapiens), Q9NRY2 (parent)
chain: MAANSSGQGFQNKNRVAILAELDKEKRKLLMQNQSSTNHPGASIALSRPSLNKDFRDHAEQQHIAAQQKAALQHAHAHSSGYFITQDSAFGNLILPVLPRLDPE
B5: Ribosome-recycling factor, mitochondrial (Homo sapiens), Q96E11 (parent)
chain: MALGLKCFRMVHPTFRNYLAASIRPVSEVTLKTVHERQHGHRQYMAYSAVPVRHFATKKAKAKGKGQSQTRVNINAALVEDIINLEEVNEEMKSVIEALKDNFNKTLNIRTSPGSLDKIAVVTADGKLALNQISQISMKSPQLILVNMASFPECTAAAIKAIRESGMNLNPEVEGTLIRVPIPQVTREHREMLVKLAKQNTNKAKDSLRKVRTNSMNKLKKSKDTVSEDTIRLIEKQISQMADDTVAELDRHLAVKTKELLG
partner: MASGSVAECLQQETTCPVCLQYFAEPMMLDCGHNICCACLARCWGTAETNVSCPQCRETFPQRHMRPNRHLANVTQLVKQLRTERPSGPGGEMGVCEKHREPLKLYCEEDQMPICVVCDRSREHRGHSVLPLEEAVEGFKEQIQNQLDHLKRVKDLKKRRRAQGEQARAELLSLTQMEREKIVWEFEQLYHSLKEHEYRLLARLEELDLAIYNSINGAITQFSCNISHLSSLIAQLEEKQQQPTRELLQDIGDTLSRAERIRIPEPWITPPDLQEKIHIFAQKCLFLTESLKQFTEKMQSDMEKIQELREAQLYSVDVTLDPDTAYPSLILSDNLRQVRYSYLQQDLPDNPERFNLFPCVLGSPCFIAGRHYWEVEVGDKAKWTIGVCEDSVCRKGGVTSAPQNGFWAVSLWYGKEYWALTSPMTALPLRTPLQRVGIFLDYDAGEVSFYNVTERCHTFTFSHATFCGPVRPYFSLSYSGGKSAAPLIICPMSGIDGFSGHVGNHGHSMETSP
B6: Glycodelin (Homo sapiens), P09466 (parent)
chain: MLCLLLTLGVALVCGVPAMDIPQTKQDLELPKLAGTWHSMAMATNNISLMATLKAPLRVHITSLLPTPEDNLEIVLHRWENNSCVEKKVLGEKTENPKKFKINYTVANEATLLDTDYDNFLFLCLQDTTTPIQSMMCQYLARVLVEDDEIMQGFIRAFRPLPRHLWYLLDLKQMEEPCRF
partner: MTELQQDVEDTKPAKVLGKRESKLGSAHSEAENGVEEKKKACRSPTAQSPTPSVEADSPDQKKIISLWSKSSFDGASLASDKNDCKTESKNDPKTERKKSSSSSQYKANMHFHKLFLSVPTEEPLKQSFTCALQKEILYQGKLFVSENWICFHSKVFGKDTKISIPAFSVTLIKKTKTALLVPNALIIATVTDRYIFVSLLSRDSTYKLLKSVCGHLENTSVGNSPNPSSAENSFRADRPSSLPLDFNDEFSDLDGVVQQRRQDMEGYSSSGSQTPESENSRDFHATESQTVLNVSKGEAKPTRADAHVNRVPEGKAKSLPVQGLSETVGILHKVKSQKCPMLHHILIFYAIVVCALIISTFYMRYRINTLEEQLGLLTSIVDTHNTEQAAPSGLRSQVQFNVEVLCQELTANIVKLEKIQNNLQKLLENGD

Variants of: B1
Details: with mtmr8_human MTMR8, Q96EF0

Row | Variant | effect of a mutation on the interaction
1 | R359S | with no effect

Variants of: B2
Details: with mos_human MOS

Row | Variant | effect of a mutation on the interaction
2 | R359S | with no effect

Variants of: B3
Details: with KRT40, Q6A162

Row | Variant | effect of a mutation on the interaction
3 | R818T | with no effect

Variants of: B4
Details: with rbpms_human RBPMS

Row | Variant | effect of a mutation on the interaction
4 | K28T | with no effect

Variants of: B5
Details: with tri27_human TRIM27, P14373

Row | Variant | effect of a mutation on the interaction
5 | G175E | disrupting interaction strength

Variants of: B6
Details: with grm2b_human GRAMD2B

Row | Variant | effect of a mutation on the interaction
6 | V75F | disrupting interaction strength
